We go through two variants from IntAct's records for PubMed 10488108.

To fix the notation:
B1: E3 ubiquitin-protein ligase CIP8 (Arabidopsis thaliana (Mouse-ear cress)), Q9SPL2 (parent)
chain: MSDAPSSSPDATASHWCYHCNKRVVVETLDDFVVCCECNKGFVESIQPTPAAYSSPAPPQPLSPDLNVEDSSIGSHFLQMLRLLAHAPSQRSPPRHLDVLSYEDDFFRLELNSRNEIDDDEDEDEDDGDEEEEDEEENLTVNDEEDEEDDLRRRNRFPLTTTQSRTGRNRILDWAEILMGIEDNSIEFRMESDRYAGNPADYIDDAAGYEALLQNLAEGDGGGGGGRRGAPPAAKSAIEALETFEVSSSEGEMVMVCAVCKDGMVMGETGKKLPCGHCYHGDCIVPWLGTRNSCPVCRFQLETDDAEYEEERKKRTSTVSDSAAASSSSSTSRY
partner: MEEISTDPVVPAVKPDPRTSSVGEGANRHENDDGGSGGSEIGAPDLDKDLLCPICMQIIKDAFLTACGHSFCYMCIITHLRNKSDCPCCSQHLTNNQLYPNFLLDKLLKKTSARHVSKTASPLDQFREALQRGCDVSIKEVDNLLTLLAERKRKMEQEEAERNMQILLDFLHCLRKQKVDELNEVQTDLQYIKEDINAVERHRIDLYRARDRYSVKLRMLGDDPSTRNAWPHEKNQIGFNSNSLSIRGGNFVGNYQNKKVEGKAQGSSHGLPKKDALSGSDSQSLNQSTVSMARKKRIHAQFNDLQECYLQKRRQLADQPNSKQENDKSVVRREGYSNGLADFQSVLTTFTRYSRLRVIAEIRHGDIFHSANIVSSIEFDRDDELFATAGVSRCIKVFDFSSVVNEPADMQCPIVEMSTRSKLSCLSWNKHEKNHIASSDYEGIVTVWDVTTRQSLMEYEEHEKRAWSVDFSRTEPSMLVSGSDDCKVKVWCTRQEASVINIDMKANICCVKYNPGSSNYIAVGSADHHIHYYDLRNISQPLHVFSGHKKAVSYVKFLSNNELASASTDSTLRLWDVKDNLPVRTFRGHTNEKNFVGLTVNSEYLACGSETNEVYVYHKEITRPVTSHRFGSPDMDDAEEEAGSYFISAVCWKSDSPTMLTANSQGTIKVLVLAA
B2: E3 ubiquitin-protein ligase COP1 (Arabidopsis thaliana (Mouse-ear cress)), P43254 (parent)
chain: B1 partner
partner: B1 chain

The first assay covers variants of B1. As to conditions: with cop1_arath COP1, P43254.
As to C275A;H277A;H280A;C283A, the “effect of a mutation on the interaction” value is “disrupting interaction”.

Variants of B2 are the subject of a further assay. As to conditions: with cip8_arath CIP8, Q9SPL2.
As to C67A;H69A;C72A;C75A, the “effect of a mutation on the interaction” value is given as “disrupting interaction”.
